According to IntAct's records for PubMed 16803958:

B1: Protein CBFA2T1 (Homo sapiens), Q06455-4 (parent)
chain: MPDSPVDVKTQSRLTPPTMPPPPTTQGAPRTSSFTPTTLTNGTSHSPTALNGAPSPPNGFSNGPSSSSSSSLANQQLPPACGARQLSKLKRFLTTLQQFGNDISPEIGERVRTLVLGLVNSTLTIEEFHSKLQEATNFPLRPFVIPFLKANLPLLQRELLHCARLAKQNPAQYLAQHEQLLLDASTTSPVDSSELLLDVNENGKRRTPDRTKENGFDREPLHSEHPSKRPCTISPGQRYSPNNGLSYQPNGLPHPTPPPPQHYRLDDMAIAHHYRDSYRHPSHRDLRDRNRPMGLHGTRQEEMIDHRLTDREWAEEWKHLDHLLNCIMDMVEKTRRSLTVLRRCQEADREELNYWIRRYSDAEDLKKGGGSSSSHSRQQSPVNPDPVALDAHREFLHRPASGYVPEEIWKKAEEAVNEVKRQAMTELQKAVSEAERKAHDMITTERAKMERTVAEAKRQAAEDALAVINQQEDSSESCWNCGRKASETCSGCNTARYCGSFCQHKDWEKHHHICGQTLQAQQQGDTPAVSSSVTPNSGAGSPMDTPPAATPRSTTPGTPSTIETTPR

Variants of: B1
Settings: with TCF12, Q99081-3
Chain of TCF12, Q99081-3 (Q99081 other isoform, or with tags, fused parts or gaps): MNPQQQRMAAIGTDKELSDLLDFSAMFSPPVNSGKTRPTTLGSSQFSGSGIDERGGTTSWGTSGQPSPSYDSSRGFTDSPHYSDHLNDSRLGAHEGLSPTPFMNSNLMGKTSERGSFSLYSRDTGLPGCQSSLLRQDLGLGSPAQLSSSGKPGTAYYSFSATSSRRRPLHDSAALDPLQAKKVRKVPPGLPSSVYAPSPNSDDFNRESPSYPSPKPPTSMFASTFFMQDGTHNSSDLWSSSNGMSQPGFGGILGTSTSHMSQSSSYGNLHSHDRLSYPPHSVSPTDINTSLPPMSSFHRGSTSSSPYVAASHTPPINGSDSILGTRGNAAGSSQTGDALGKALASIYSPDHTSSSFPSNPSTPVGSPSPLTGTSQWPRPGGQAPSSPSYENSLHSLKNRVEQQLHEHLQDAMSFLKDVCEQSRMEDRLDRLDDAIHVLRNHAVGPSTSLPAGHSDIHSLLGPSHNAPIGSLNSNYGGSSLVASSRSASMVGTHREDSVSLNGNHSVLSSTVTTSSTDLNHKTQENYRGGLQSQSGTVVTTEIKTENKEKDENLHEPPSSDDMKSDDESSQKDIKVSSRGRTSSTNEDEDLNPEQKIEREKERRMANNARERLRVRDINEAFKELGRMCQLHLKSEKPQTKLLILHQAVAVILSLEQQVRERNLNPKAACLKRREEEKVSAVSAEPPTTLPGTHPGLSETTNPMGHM

Variant	effect of a mutation on the interaction
MPDSPVDVKTQSRLTPPTMPPPPTTQGAPRTSSFTPTTLTNGTSHSPTALNGAPSPPNGFSNGPSSSSSSSLANQQLPPACGARQLSKLKDFLTTLQQFGNDISPEIGERVRTLVLGLVNSTLTIEEFHSKLQEATNFPLRPFVIPFLKANLPLLQRELLHCARLAKQNPAQYLAQHEQLLLDASTTSPVDSSELLLDVNENGKRRTPDRTKENGFDREPLHSEHPSKRPCTISPGQRYSPNNGLSYQPNGLPHPTPPPPQHYRLDDMAIAHHYRDSYRHPSHRDLRDRNRPMGLHGTRQEEMIDHRLTDREWAEEWKHLDHLLNCIMDMVEKTRRSLTVLRRCQEADREELNYWIRRYSDAEDLKKGGGSSSSHSRQQSPVNPDPVALDAHREFLHRPASGYVPEEIWKKAEEAVNEVKRQAMTELQKAVSEAERKAHDMITTERAKMERTVAEAKRQAAEDALAVINQQEDSSESCWNCGRKASETCSGCNTARYCGSFCQHKDWEKHHHICGQTLQAQQQGDTPAVSSSVTPNSGAGSPMDTPPAATPRSTTPGTPSTIETTPR [R91D]	disrupting interaction strength
MPDSPVDVKTQSRLTPPTMPPPPTTQGAPRTSSFTPTTLTNGTSHSPTALNGAPSPPNGFSNGPSSSSSSSLANQQLPPACGARQLSKAKRFLTTLQQFGNDISPEIGERVRTLVLGLVNSTLTIEEFHSKLQEATNFPLDPFVIPFLKANLPLLQRELLHCARLAKQNPAQYLAQHEQLLLDASTTSPVDSSELLLDVNENGKRRTPDRTKENGFDREPLHSEHPSKRPCTISPGQRYSPNNGLSYQPNGLPHPTPPPPQHYRLDDMAIAHHYRDSYRHPSHRDLRDRNRPMGLHGTRQEEMIDHRLTDREWAEEWKHLDHLLNCIMDMVEKTRRSLTVLRRCQEADREELNYWIRRYSDAEDLKKGGGSSSSHSRQQSPVNPDPVALDAHREFLHRPASGYVPEEIWKKAEEAVNEVKRQAMTELQKAVSEAERKAHDMITTERAKMERTVAEAKRQAAEDALAVINQQEDSSESCWNCGRKASETCSGCNTARYCGSFCQHKDWEKHHHICGQTLQAQQQGDTPAVSSSVTPNSGAGSPMDTPPAATPRSTTPGTPSTIETTPR [L89A;R141D]	disrupting interaction strength
MPDSPVDVKTQSRLTPPTMPPPPTTQGAPRTSSFTPTTLTNGTSHSPTALNGAPSPPNGFSNGPSSSSSSSLANQQLPPACGARQLSDLKRFLTTLQQFGNDISPEIGERVRTLVLGLVNSTLTIEEFHSKLQEATNFPLRPFVIPFLKANLPLLQRELLHCARLAKQNPAQYLAQHEQLLLDASTTSPVDSSELLLDVNENGKRRTPDRTKENGFDREPLHSEHPSKRPCTISPGQRYSPNNGLSYQPNGLPHPTPPPPQHYRLDDMAIAHHYRDSYRHPSHRDLRDRNRPMGLHGTRQEEMIDHRLTDREWAEEWKHLDHLLNCIMDMVEKTRRSLTVLRRCQEADREELNYWIRRYSDAEDLKKGGGSSSSHSRQQSPVNPDPVALDAHREFLHRPASGYVPEEIWKKAEEAVNEVKRQAMTELQKAVSEAERKAHDMITTERAKMERTVAEAKRQAAEDALAVINQQEDSSESCWNCGRKASETCSGCNTARYCGSFCQHKDWEKHHHICGQTLQAQQQGDTPAVSSSVTPNSGAGSPMDTPPAATPRSTTPGTPSTIETTPR [K88D]	disrupting interaction strength

Now from value to variant:

effect of a mutation on the interaction	Variant
disrupting interaction strength	MPDSPVDVKTQSRLTPPTMPPPPTTQGAPRTSSFTPTTLTNGTSHSPTALNGAPSPPNGFSNGPSSSSSSSLANQQLPPACGARQLSKLKRALTTLQQFGNDISPEIGERVRTLVLGLVNSTLTIEEFHSKLQEATNFPLRPFVIPALKANLPLLQRELLHCARLAKQNPAQYLAQHEQLLLDASTTSPVDSSELLLDVNENGKRRTPDRTKENGFDREPLHSEHPSKRPCTISPGQRYSPNNGLSYQPNGLPHPTPPPPQHYRLDDMAIAHHYRDSYRHPSHRDLRDRNRPMGLHGTRQEEMIDHRLTDREWAEEWKHLDHLLNCIMDMVEKTRRSLTVLRRCQEADREELNYWIRRYSDAEDLKKGGGSSSSHSRQQSPVNPDPVALDAHREFLHRPASGYVPEEIWKKAEEAVNEVKRQAMTELQKAVSEAERKAHDMITTERAKMERTVAEAKRQAAEDALAVINQQEDSSESCWNCGRKASETCSGCNTARYCGSFCQHKDWEKHHHICGQTLQAQQQGDTPAVSSSVTPNSGAGSPMDTPPAATPRSTTPGTPSTIETTPR [F92A;F147A]
decreasing interaction strength	MPDSPVDVKTQSRLTPPTMPPPPTTQGAPRTSSFTPTTLTNGTSHSPTALNGAPSPPNGFSNGPSSSSSSSLANQQLPPACGARQLSKLKRFLTTAQQFGNDISPEIGERVRTLVLGLVNSTLTIEEFHSKLQEATNFPLRPFVIPFLKANLPLLQRELLHCARLAKQNPAQYLAQHEQLLLDASTTSPVDSSELLLDVNENGKRRTPDRTKENGFDREPLHSEHPSKRPCTISPGQRYSPNNGLSYQPNGLPHPTPPPPQHYRLDDMAIAHHYRDSYRHPSHRDLRDRNRPMGLHGTRQEEMIDHRLTDREWAEEWKHLDHLLNCIMDMVEKTRRSLTVLRRCQEADREELNYWIRRYSDAEDLKKGGGSSSSHSRQQSPVNPDPVALDAHREFLHRPASGYVPEEIWKKAEEAVNEVKRQAMTELQKAVSEAERKAHDMITTERAKMERTVAEAKRQAAEDALAVINQQEDSSESCWNCGRKASETCSGCNTARYCGSFCQHKDWEKHHHICGQTLQAQQQGDTPAVSSSVTPNSGAGSPMDTPPAATPRSTTPGTPSTIETTPR [L96A]
